Assay results from US20260242440A1, “NOVEL MEANS TO MODULATE NMDA RECEPTOR-MEDIATED TOXICITY” (FUNDAMENTAL PHARMA GMBH, priority 2018, published 2026).
“Also recorded” adds a separate entry of the source.

B1: SEQ ID NO:51: fragment of mouse TRPM4, amino acid residues 468-548 (protein, listed as Mus musculus)
chain: SLGHFLTPVRLAQLYSAVSPNSLIRNLLDQASHASSSKSPPVNGTVELRPPNVGQVLRTLLGETCAPRYPARNTRDSYLGQDHRENDSLLMDWANKQPST
B2: SEQ ID NO:50: fragment of mouse TRPM4, amino acid residues 347-467 (protein, listed as Mus musculus)
chain: LQAQVERIMTRKELLTVYSSEDGSEEFETIVLRALVKACGSSEASAYLDELRLAVAWNRVDIAQSELFRGDIQWRSFHLEASLMDALLNDRPEFVRLLISHGLSLGHFLTPVRLAQLYSAVS
B3: SEQ ID NO:48: fragment of mouse TRPM4, amino acid residues 690-1036 (protein, listed as Mus musculus)
chain: IWALLLAFFCPPLIYTNLIVFRKSEEEPTQKDLDFDMDSSINGAGPPGTVEPSAKVALERRQRRRPGRALCCGKFSKRWSDFWGAPVTAFLGNVVSYLLFLLLFAHVLLVDFQPTKPSVSELLLYFWAFTLLCEELRQGLGGGWGSLASGGRGPDRAPLRHRLHLYLSDTWNQCDLLALTCFLLGVGCRLTPGLFDLGRTVLCLDFMIFTLRLLHIFTVNKQLGPKIVIVSKMMKDVFFFLFFLCVWLVAYGVATEGILRPQDRSLPSILRRVFYRPYLQIFGQIPQEEMDVALMIPGNCSMERGSWAHPEGPVAGSCVSQYANWLVVLLLIVFLLVANILLLNLLI
B4: SEQ ID NO:47: fragment of mouse TRPM4, amino acid residues 347-689 (protein, listed as Mus musculus)
chain: LQAQVERIMTRKELLTVYSSEDGSEEFETIVLRALVKACGSSEASAYLDELRLAVAWNRVDIAQSELFRGDIQWRSFHLEASLMDALLNDRPEFVRLLISHGLSLGHFLTPVRLAQLYSAVSPNSLIRNLLDQASHASSSKSPPVNGTVELRPPNVGQVLRTLLGETCAPRYPARNTRDSYLGQDHRENDSLLMDWANKQPSTDASFEQAPWSDLLIWALLLNRAQMAIYFWEKGSNSVASALGACLLLRVMARLESEAEEAARRKDLAATFESMSVDLFGECYHNSEERAARLLLRRCPLWGEATCLQLAMQADARAFFAQDGVQSLLTQKWWGEMDSTTP
B5: SEQ ID NO:53: corresponds to SEQ ID NO:47 but comprises additionally a membrane-anchor (GPI) (protein)
chain: LQAQVERIMTRKELLTVYSSEDGSEEFETIVLRALVKACGSSEASAYLDELRLAVAWNRVDIAQSELFRGDIQWRSFHLEASLMDALLNDRPEFVRLLISHGLSLGHFLTPVRLAQLYSAVSPNSLIRNLLDQASHASSSKSPPVNGTVELRPPNVGQVLRTLLGETCAPRYPARNTRDSYLGQDHRENDSLLMDWANKQPSTDASFEQAPWSDLLIWALLLNRAQMAIYFWEKGSNSVASALGACLLLRVMARLESEAEEAARRKDLAATFESMSVDLFGECYHNSEERAARLLLRRCPLWGEATCLQLAMQADARAFFAQDGVQSLLTQKWWGEMDSTTPLENGGTSLSEKTVLLLVTPFLAAAWSLHP
modifications: GPI membrane anchor; Fusion protein of SEQ ID NO: and SEQ ID NO:57
B6: SEQ ID NO:52: fragment of mouse TRPM4, amino acid residues 536-648 (protein, listed as Mus musculus)
chain: SYLGQDHRENDSLLMDWANKQPSTDASFEQAPWSDLLIWALLLNRAQMAIYFWEKGSNSVASALGACLLLRVMARLESEAEEAARRKDLAATFESMSVDLFGECYHNSEERAARLLLRRCPLWG
B7: SEQ ID NO:49: fragment of mouse TRPM4, amino acid residues 1037-1213 (protein, listed as Mus musculus)
chain: AMFSYTFSKVHGNSDLYWKAQRYSLIREFHSRPALAPPLIIISHVRLLIKWLRRCRRCRRANLPASPVFEHFRVCLSKEAERKLLTWESVHKENFLLAQARDKRDSDSERLKRTSQKVDTALKQLGQIREYDRRLRGLEREVQHCSRVLTWMAEALSHSALLPPGAPPPPSPTGSKD

test system: primary mouse hippocampal neurons; experiment: NMDA induced cell death (excitotoxicity) in cultured primary neurons; assay type: cell-based; conditions: polypeptide expressed via rAAV infection on DIV3; NMDA 20 μM for 10 min; cell death assessed 24 h later
Method: Primary mouse hippocampal and cortical neurons were prepared and maintained as known. Briefly, hippocampi or cerebral cortex from P0 C57Bl/6NCrl mice were dissociated and plated at a density of 1.2*105/cm^2 in Growth Medium (GM), consisting of Neurobasal A medium (Gibco™, 10888022), 2% serum free B27™ Supplement (Gibco™, 17504044), 1% rat serum (Biowest, S2150), 0.5 mM L-Glutamine (Sigma, G7513) and 0.5% P-S. Cytosine β-D-arabinofuranoside (AraC; Sigma, C1768; 2.8 μM) was added on DIV3 to prevent the proliferation of glial cells. From DIV8, half of the medium was replaced by GM without Rat serum every 48 h until being used for experiments. 24 h before experiments, GM was replaced with transfection medium (10 mM HEPES, pH 7.4, 114 mM NaCl, 26.1 mM NaHCO3, 5.3 mM KCl, 1 mM MgCl2, 2 mM CaCl2, 30 mM glucose, 1 mM glycine, 0.5 mM C3H3NaO3, and 0.001% phenol red and 10% of phosphate-free Eagle's minimum essential medium, supplemented with 7.5 µg/ml insulin, 7.5 µg/ml transferrin and 7.5 ng/ml sodium selenite (ITS Liquid Media Supplement, Sigma-Aldrich Cat #I3146)). Primary hippocampal neurons were used in live cell imaging, cell death experiments, while cortical neurons were used for mRNA and protein extraction analysis.
All viral particles were produced and purified as known in the art. All TRPM4 derived peptides (comprising SEQ ID NO:5, or any of SEQ ID NO:46 to SEQ ID NO:56) were cloned into rAAV backbone by PCR. shRNA against mouse TRPM4 were designed by BLOCK-iT™ RNAi Designer from Thermofisher to target: […] (SEQ ID NO:44, shTRPM4-1) and […] (SEQ ID NO:45, shTRPM4-2). Scramble shRNA (shSCR) has been tested and proven to have no known targets in mice. GPI anchor ([…], e.g. used in SEQ ID NO:53) sequences were synthesized by Eurofins Genomics (Ebersberg, Germany). All primers were synthesized and all plasmids were confirmed by sequencing by Eurofins Genomics.
In order to investigate the role of TRPM4 in NMDA receptor mediated excitotoxicity, the inventors used RNA interference strategies to knock down TRPM4. Cultured primary mouse hippocampus neurons were infected on day 3 in vitro (DIV3) with recombinant adeno-associated viruses (rAAVs) providing for expression of a scramble control (shSCR), shTRPM4-1 (SEQ ID NO:44) or shTRPM4-2 (SEQ ID NO:45). On DIV15-16, neurons were challenged with N-methyl-D-aspartate (NMDA, 20 μM) for 10 min. After NMDA wash out, neurons were kept in the culture medium for another 24 h before analysis. […] Evidently, TRPM4 is thus involved in the process of NMDA receptor mediated excitotoxicity.
In a next step, the inventors tried to identify regions in the mouse TRPM4 protein potentially involved in NMDA receptor mediated excitotoxicity. For this purpose, polypeptide fragments of mouse TRPM4 protein were generated and their impact on NMDA induced excitotoxicity analysed. To do so, primary neuron cultures were infected with respective rAAVs on DIV3, challenged with NMDA (20 μM) for 10 min on DIV17 and cell death assessed 24 hours later.
The sequence of SEQ ID NO:5 in TRPM4 is located in vivo just beneath the plasma membrane. […] To test this hypothesis, the inventors created a fusion protein comprising SEQ ID NO:5 and a GPI anchor, SEQ ID NO:57. The sequence of the fusion is given in SEQ ID NO:53. Neurons infected with rAAV and expressing SEQ ID NO:47 (control) or SEQ ID NO:53 were exposed to NMDA (20 μM) for 10 min on DIV15-16, with cell death assessed after 24 h.
In a next step, the inventors created a mutant of SEQ ID NO:5, in which two adjacent phenylalanine residues where substituted by tyrosine residues (SEQ ID NO: 54). […] TRPM5 is a protein related to but nonetheless distinct to TRPM4. The region in TRPM5 corresponding to SEQ ID NO:5, SEQ ID NO:55, shares only about 60% sequence identity with SEQ ID NO:5. Neurons were infected on DIV3 with rAAVs expressing SEQ ID NO: 5, SEQ ID NO: 54 or SEQ ID NO:55 and exposed to NMDA (20 μM) for 10 min on DIV17, with cell death assessed 24 h later. […]

Molecule	protection against NMDA induced cell death (neuroprotective effect)
SEQ ID NO:46: fragment of mouse TRPM4, amino acid residues 1-346	only SEQ ID NO:47 is neuroprotective
B1	only SEQ ID NO:5 is neuroprotective
B2	only SEQ ID NO:5 is neuroprotective
B3	only SEQ ID NO:47 is neuroprotective
B4	contains a neuroprotective element
B5	can increase the ability to protect neurons from excitotoxicity; also recorded: increased the protective effects
B6	only SEQ ID NO:5 is neuroprotective
B7	only SEQ ID NO:47 is neuroprotective

same assay, conditions: rAAV shRNA infection DIV3; NMDA 20 μM 10 min on DIV15-16; analysis 24 h later

Molecule	protection from NMDA induced excitotoxicity by knockdown of TRPM4
shTRPM4-2: shRNA against mouse TRPM4 targeting gcatccagagagggttcattc, expressed from rAAV (guide GCAUCCAGAGAGGGUUCAUUC; listed as Mus musculus)	significantly protected neurons
shTRPM4-1: shRNA against mouse TRPM4 targeting ggacatcgcccaaagtgaact, expressed from rAAV (guide GGACAUCGCCCAAAGUGAACU; listed as Mus musculus)	significantly protected neurons
